Stoichiometry N data for one substance are collected here from doi:10.1101/2020.01.15.908418.

The target in assay [1] is tropomyosin of murine cardiac thin filaments (mouse (endogenous in murine ventricular myocardium)) (UniProt P58771). As to the kind of experiment: cryo-EM structure.
Assay [2] has the same target. In words: cryo-EM structure. This is another data set of the same source.

One may read the stoichiometry N as the number of molecules, sites or subunits per partner or assembly.

Like-named read-outs stand apart in the source and are kept apart here.

As for “tropomyosin of murine cardiac thin filaments (from UniProt P58771 1-284) (natural protein)”, the stoichiometry N in assay [1] and in assay [2] was 2 throughout.
